Assay results as given in US20240376151A1, “STAPLED PEPTIDES AND METHODS THEREOF” (FOG PHARMACEUTICALS, INC., priority 2022, published 2024).
Bridge positions count the residues as written; N and C are the ends.

Target: T1, RNF31 PUB domain (Homo sapiens, UniProt Q96EP0)
T1 construct: MBP-TEV (N, cleaved yes); made in house; host or cells: E. coli BL21 (DE3) pLysS
T1 sequence (Q96EP0 1-179): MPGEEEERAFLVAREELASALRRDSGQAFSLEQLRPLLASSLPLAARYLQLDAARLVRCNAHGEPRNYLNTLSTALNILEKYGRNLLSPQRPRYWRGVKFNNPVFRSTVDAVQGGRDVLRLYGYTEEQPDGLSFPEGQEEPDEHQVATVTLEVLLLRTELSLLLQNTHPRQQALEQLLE
Assay: Phage Library Screening with NGS, RNF31 PUB domain
Type: binding
Conditions: for Phage library screen NGS readout, Target Concentration 10 / Phage library screen NGS readout, Target Concentration 30 / Phage library screen NGS readout, Target Concentration 100 / Phage library screen NGS readout, Target Concentration 300 / Phage library screen NGS readout, Target Concentration 1000: RNF31 PUB domain clusters C41-C45; for Phage library screen NGS readout, BLANK: clusters C41-C45

[1] = target concentration 1000, first column
[2] = target concentration 1000, second column

Phage library screen NGS readout, Target Concentration 10 | Phage library screen NGS readout, Target Concentration 30 | Phage library screen NGS readout, Target Concentration 100 | Phage library screen NGS readout, Target Concentration 300 | Phage library screen NGS readout, Target Concentration 1000 [1] | Phage library screen NGS readout, Target Concentration 1000 [2] | Phage library screen NGS readout, BLANK (column 1 of 5) | Phage library screen NGS readout, BLANK (column 2 of 5) | Phage library screen NGS readout, BLANK (column 3 of 5) | Phage library screen NGS readout, BLANK (column 4 of 5) | Phage library screen NGS readout, BLANK (column 5 of 5) | Sequence
0 | 1 | 0 | 1 | 7 | 10 | 0 | 0 | 0 | 0 | 0 | DPAWTQCDWAALYCEDQ
1 | 1 | 1 | 11 | 96 | 69 | 0 | 0 | 2 | 0 | 0 | DPALSHCTVAAMVCSTY
0 | 0 | 1 | 14 | 44 | 32 | 0 | 0 | 0 | 0 | 0 | DPAEEYCLEAAILCTYD
1 | 0 | 0 | 3 | 9 | 5 | 0 | 0 | 0 | 2 | 0 | DPAWWNCLYAAYECNHA
1 | 1 | 1 | 3 | 11 | 1 | 2 | 1 | 1 | 0 | 0 | DPAWNDCLYAAETCISW
2 | 0 | 0 | 2 | 18 | 9 | 1 | 3 | 1 | 0 | 0 | DPAEQFCLYAAYDCYSE
1 | 1 | 3 | 3 | 7 | 4 | 1 | 0 | 0 | 3 | 2 | DPAQYQCWNAAMSCSYS

The remaining lines, values behind:

Sequence | Phage library screen NGS readout, Target Concentration 10 | Phage library screen NGS readout, Target Concentration 30 | Phage library screen NGS readout, Target Concentration 100 | Phage library screen NGS readout, Target Concentration 300 | Phage library screen NGS readout, Target Concentration 1000 [1] | Phage library screen NGS readout, Target Concentration 1000 [2] | Phage library screen NGS readout, BLANK (column 1 of 5) | Phage library screen NGS readout, BLANK (column 2 of 5) | Phage library screen NGS readout, BLANK (column 3 of 5) | Phage library screen NGS readout, BLANK (column 4 of 5) | Phage library screen NGS readout, BLANK (column 5 of 5)
DPAYWDCLYAAADCAFY | 0 | 0 | 0 | 4 | 8 | 5 | 2 | 0 | 0 | 0 | 0
DPAVVDCWDAAVQCTYY | 0 | 0 | 0 | 4 | 15 | 11 | 0 | 0 | 0 | 2 | 0
DPALRDCLDAAIMCTYT | 0 | 1 | 0 | 4 | 5 | 7 | 0 | 0 | 0 | 0 | 0
DPAFQFCVEAAVACSYY | 0 | 0 | 0 | 6 | 9 | 5 | 0 | 0 | 0 | 0 | 4
DPALEICWDAAIQCSYV | 2 | 3 | 4 | 47 | 186 | 171 | 2 | 0 | 0 | 3 | 1
DPAYWHCLYAAASCDDI | 0 | 0 | 0 | 2 | 8 | 4 | 0 | 3 | 0 | 0 | 2
DPAFWACLYAAEECVVD | 0 | 0 | 0 | 3 | 6 | 9 | 1 | 0 | 0 | 0 | 1
DPAWTDCDWAALYCEFQ | 1 | 0 | 0 | 0 | 6 | 6 | 0 | 0 | 0 | 1 | 0
DPAQDWCMYAAYECDAH | 0 | 0 | 0 | 2 | 7 | 9 | 0 | 0 | 2 | 1 | 1
DPAIVQCAWAALYCDMQ (Ac-DPAIVQCAWAALYCDMQ-NH2; bridge 7-14; also: Cys-Cys staple, linker not named) | 0 | 0 | 0 | 7 | 22 | 20 | 0 | 0 | 0 | 0 | 0
DPAYWDCMYAAFYCDDI | 0 | 0 | 0 | 3 | 3 | 8 | 0 | 0 | 0 | 0 | 2
